Source: patent US20030172388A1 (University of Texas, published 2003)

Tests used:
[1] = biological target: T1, MCL1 (Myeloid Cell Leukemia 1) (UniProt Q07820 1-350, limits assumed); assay: in vitro pull-down with anti-HA antibody and Dynabeads, [35S]-labelled proteins
Text: (§1) In vitro pull-down assay. Radiolabeled proteins for use in an in vitro binding assay were generated by a TNT Quick Coupled Transcription/Translation System (Promega, Madison, Wis.) according to the manufacturer's instructions, using [³⁵S]methionine (Amersham-Pharmacia, Piscataway, N.J.) as labeling agent. DNA templates were either circular plasmids or gel-purified PCR products containing a T7 RNA polymerase promoter. The in vitro translated, influenza hemagglutinin-tagged Fortilin (Fortilin-HA) or its mutants and another in vitro translated protein namely, MCL1, Bcl-xL, Bak, Bax or PCNA, were added to Buffer A (50 mM HEPES, pH 7.5, 70 mM KCl, 0.5 mM ATP, 5 mM MgSO₄, 1 mM DTT, 0.001% NP-40, 50 μM MG132, 2 μg/mL BSA, 2 μg/mL aporotinin, 0.5 mM PMSF and protease inhibitor cocktail [Sigma]), and allowed to form complexes at 4° C. for 90 minutes. Fortilin-HA or its mutants were then pulled down with rat anti-HA antibody (Clone 3F10; Roche Molecular Biochemicals, Indianapolis, Ind.) and sheep anti-rat polyclonal antibody conjugated to Dynabeads™ (M480; Dynal USA, Lake Success, N.Y.). Immune complexes were then washed 5 times with Buffer A and once with Buffer B (Buffer A supplemented with 0.01% NP-40). Finally, precipitated proteins were eluted into SDS gel loading buffer (50 mM Tris-Cl, pH 6.8, 100 mM DTT, 2% SDS, 0.1% bromophenol blue, and 10% glycerol), boiled for 5 minutes, subjected to 12% SDS-polyacrylamide gel electrophoresis (SDS-PAGE) and visualized by fluorography and imaging with a phosphoimager system (Bio-Rad, Hercules, Calif.).

[2] = biological target: T2, Bak (UniProt Q16611 1-211, limits assumed); assay: as above
T2 construct: In vitro translated, [35S]Met-labelled
T2 sequence (looked up): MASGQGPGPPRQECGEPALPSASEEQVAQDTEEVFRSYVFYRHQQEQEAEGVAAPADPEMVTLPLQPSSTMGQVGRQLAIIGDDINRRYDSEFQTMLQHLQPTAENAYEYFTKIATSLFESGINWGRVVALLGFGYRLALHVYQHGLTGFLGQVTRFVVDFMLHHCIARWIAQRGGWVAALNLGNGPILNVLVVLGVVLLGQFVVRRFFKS
Text: as §1

[3] = biological target: T3, PCNA (UniProt P12004 1-261, limits assumed); assay: as above
T3 construct: In vitro translated, [35S]Met-labelled
Text: as §1

[4] = biological target: T4, Bax (UniProt Q07812 1-192, limits assumed); assay: as above
T4 construct: In vitro translated, [35S]Met-labelled
Text: as §1

[5] = biological target: T1, MCL1 (Myeloid Cell Leukemia 1); assay: in vitro interaction assay with Fortilin deletion mutants
Text: as §1, with “Finally, precipitated proteins were eluted into SDS gel loading buffer (50 mM Tris-Cl, pH 6.8, 100 mM DTT, 2% SDS, 0.1% bromophenol blue, and 10% glycerol), boiled for 5 minutes, subjected to 12% SDS-polyacrylamide gel electrophoresis (SDS-PAGE) and visualized by fluorography and imaging with a phosphoimager system (Bio-Rad, Hercules, Calif.).” left out

T1 sequence (Q07820 whole entry): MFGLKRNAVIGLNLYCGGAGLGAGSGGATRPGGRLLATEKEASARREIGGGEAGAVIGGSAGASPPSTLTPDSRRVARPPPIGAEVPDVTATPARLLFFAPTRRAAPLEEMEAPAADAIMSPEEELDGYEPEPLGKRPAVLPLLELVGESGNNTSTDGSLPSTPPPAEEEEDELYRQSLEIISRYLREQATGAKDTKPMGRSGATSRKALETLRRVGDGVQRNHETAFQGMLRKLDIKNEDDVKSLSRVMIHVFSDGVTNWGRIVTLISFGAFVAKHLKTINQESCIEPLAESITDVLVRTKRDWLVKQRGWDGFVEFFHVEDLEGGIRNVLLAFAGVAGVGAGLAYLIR
T3 sequence (P12004 whole entry): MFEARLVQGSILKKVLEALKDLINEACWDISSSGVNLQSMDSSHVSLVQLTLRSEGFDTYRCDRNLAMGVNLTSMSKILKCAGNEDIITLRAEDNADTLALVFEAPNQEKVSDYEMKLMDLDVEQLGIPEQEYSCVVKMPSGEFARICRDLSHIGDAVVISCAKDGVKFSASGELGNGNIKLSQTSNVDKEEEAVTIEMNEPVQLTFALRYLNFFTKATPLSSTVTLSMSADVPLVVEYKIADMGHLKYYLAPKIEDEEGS
T4 sequence (Q07812 whole entry): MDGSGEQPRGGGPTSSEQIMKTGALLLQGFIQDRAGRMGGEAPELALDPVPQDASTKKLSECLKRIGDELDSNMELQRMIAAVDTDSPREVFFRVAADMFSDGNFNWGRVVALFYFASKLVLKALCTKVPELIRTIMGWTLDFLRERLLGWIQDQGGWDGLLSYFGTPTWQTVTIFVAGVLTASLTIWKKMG

B1: influenza hemagglutinin-tagged Fortilin (Fortilin-HA), full-length, amino acids 1-172 (other, not shown: small tags and cut ends)
chain: MIIYRDLISHDEMFSDIYKIREIADGLCLEVEGKMVSRTEGNIDDSLIGGNASAEGPEGEGTESTVITGVDIVMNHHLQETSFTKEAYKKYIKDYMKSIKGKLEEQRPERVKPFMTGAAEQIKHILANFKNYQFFIGENMNPDGMVALLDYREDGVTPYMIFFKDGLEMEKC
notes: also called wild type Fortilin; wild-type fortilin
B1: binds [1]; no binding [2]; no binding [3]. B1: no binding [4].

B2: HA-tagged Fortilin deletion mutant, amino acids 5-172 (other, not shown: small tags and cut ends)
chain: RDLISHDEMFSDIYKIREIADGLCLEVEGKMVSRTEGNIDDSLIGGNASAEGPEGEGTESTVITGVDIVMNHHLQETSFTKEAYKKYIKDYMKSIKGKLEEQRPERVKPFMTGAAEQIKHILANFKNYQFFIGENMNPDGMVALLDYREDGVTPYMIFFKDGLEMEKC
notes: Any added start methionine is not described
B2: binds [1].

B3: HA-tagged Fortilin deletion mutant, amino acids 23-172 (other, not shown: small tags and cut ends)
chain: IADGLCLEVEGKMVSRTEGNIDDSLIGGNASAEGPEGEGTESTVITGVDIVMNHHLQETSFTKEAYKKYIKDYMKSIKGKLEEQRPERVKPFMTGAAEQIKHILANFKNYQFFIGENMNPDGMVALLDYREDGVTPYMIFFKDGLEMEKC
notes: as for B2
B3: no binding [5].

B4: HA-tagged Fortilin deletion mutant, amino acids 46-172 (other, not shown: small tags and cut ends)
chain: SLIGGNASAEGPEGEGTESTVITGVDIVMNHHLQETSFTKEAYKKYIKDYMKSIKGKLEEQRPERVKPFMTGAAEQIKHILANFKNYQFFIGENMNPDGMVALLDYREDGVTPYMIFFKDGLEMEKC
notes: as for B2
B4: no binding [5].
